Results on ten substances are retold here after patent US20240016923A1.

Holding throughout (test): dose-dependent ELISA, antigen captured by GNA lectin
In assay [1] the target is secreted E1E2 with c-Fos/c-Jun leucine zipper scaffold (sE1E2.LZ) (Hepatitis C virus H77; human).
Assay [2] concerns the target membrane-bound E1E2 (mbE1E2) (Hepatitis C virus, isolate H77C (genotype 1a)) (UniProt P27958).
Assay [3] addresses secreted E2 ectodomain (sE2), HCV E2 residues 384-661 (Hepatitis C virus, isolate H77C) (UniProt P27958).

As to AR4A (antibody), the Kd in assay [1] was 16 nM; in assay [2], 2.3 nM. In addition, the fold lower affinity relative to mbE1E2 in assay [1] was determined as 8 fold.
Take AR5A (antibody): the Kd was found to be 1.7 nM in assay [1] and 1.5 nM in assay [2].
Regarding CBH-4D (antibody), the Kd is 1 nM in assay [3], 26 nM in assay [1] and 28 nM in assay [2].
In the case of CBH-4G (antibody), the dissociation constant Kd turned out to be 0.5 nM in assay [3], 18 nM in assay [1] and 7.8 nM in assay [2].
With CBH-7 (antibody), the Kd came to 0.3 nM in assay [3], 1.7 nM in assay [1] and 1 nM in assay [2].
For the substance HC33.1 (antibody), the equilibrium dissociation constant (Kd) in assay [3] was found to be 1.9 nM; in assay [1], 0.9 nM; in assay [2], 3.8 nM.
HC84.24 (antibody): in assay [3], the Kd worked out at 0.7 nM.
Take “HC-1 AM (affinity-matured HC-1 antibody)”: the Kd in assay [3] was found to be 3.6 nM; in assay [1], 2.9 nM; in assay [2], 1.5 nM.
In the case of HC-11 (antibody), the Kd was determined as 11 nM in assay [3], 3.2 nM in assay [1] and 1.8 nM in assay [2].
On to HCV1 (antibody), for which the figures for the Kd in assay [3], in assay [1] and in assay [2] were 6.2 nM, 3.5 nM and 9.8 nM, respectively.
